The sequences below were run on Escherichia coli TOP10 (assay: shrunken log2 fold change of peptide-encoding DNA abundance (4.5 h post-induction vs induction); higher = less antimicrobial activity (less host growth inhibition)). Details: time post-induction: 4.5 h; library: site-saturation at positions 5, 18, 19, 20.
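Note: peptides expressed intracellularly from a pBAD plasmid library in pooled LB shake-flask culture, induced with 0.3% L-arabinose, DNA abundance read by NGS, three biological replicates, DESeq2 with apeglm shrinkage.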

| Sequence | shrunken log2 fold change |
| --- | --- |
| RRIRIRPPRLPRPRPRPIFQPRP | -0.378 |
| RRIRIRPPRLPRPRPRPIHWPRP | -0.0782 |
| RRIRIRPPRLPRPRPRPIIMPRP | -0.34 |
| RRIRIRPPRLPRPRPRPILDPRP | -0.797 |
| RRIRIRPPRLPRPRPRPILFPRP | -0.273 |
| RRIRIRPPRLPRPRPRPILWPRP | -0.238 |
| RRIRIRPPRLPRPRPRPIMDPRP | -0.364 |
| RRIRIRPPRLPRPRPRPIMLPRP | 0.112 |
| RRIRIRPPRLPRPRPRPIMMPRP | -0.132 |
| RRIRIRPPRLPRPRPRPINVPRP | -0.619 |
| RRIRIRPPRLPRPRPRPIPEPRP | -0.158 |
| RRIRIRPPRLPRPRPRPIPKPRP | -0.0993 |
| RRIRIRPPRLPRPRPRPIPSPRP | -0.193 |
| RRIRIRPPRLPRPRPRPIPVPRP | -0.0943 |
| RRIRIRPPRLPRPRPRPISVPRP | 0.0153 |
| RRIRIRPPRLPRPRPRPIVNPRP | -0.67 |
| RRIRIRPPRLPRPRPRPIYPPRP | -0.304 |
| RRIRIRPPRLPRPRPRPKALPRP | -0.0211 |
| RRIRIRPPRLPRPRPRPKCCPRP | -0.143 |
| RRIRIRPPRLPRPRPRPKCDPRP | -0.352 |
| RRIRIRPPRLPRPRPRPKCHPRP | -0.199 |
| RRIRIRPPRLPRPRPRPKEGPRP | 0.00692 |
| RRIRIRPPRLPRPRPRPKFMPRP | -0.321 |
| RRIRIRPPRLPRPRPRPKHPPRP | -0.0675 |
| RRIRIRPPRLPRPRPRPKIEPRP | -0.0307 |

| Sequence | shrunken log2 fold change |
| --- | --- |
| RRIRIRPPRLPRPRPRPKIWPRP | 0.145 |
| RRIRIRPPRLPRPRPRPKKRPRP | -0.169 |
| RRIRIRPPRLPRPRPRPKMLPRP | 0.154 |
| RRIRIRPPRLPRPRPRPKMRPRP | 0.742 |
| RRIRIRPPRLPRPRPRPKNKPRP | -0.68 |
| RRIRIRPPRLPRPRPRPKNNPRP | -0.878 |
| RRIRIRPPRLPRPRPRPKPEPRP | 0.0874 |
| RRIRIRPPRLPRPRPRPKQEPRP | 0.113 |
| RRIRIRPPRLPRPRPRPKRWPRP | -0.0451 |
| RRIRIRPPRLPRPRPRPKSPPRP | -0.0939 |
| RRIRIRPPRLPRPRPRPKVAPRP | 0.283 |
| RRIRIRPPRLPRPRPRPKVVPRP | -0.00466 |
| RRIRIRPPRLPRPRPRPKWFPRP | -0.69 |
| RRIRIRPPRLPRPRPRPKWKPRP | -0.152 |
| RRIRIRPPRLPRPRPRPKWMPRP | -0.178 |
| RRIRIRPPRLPRPRPRPKWRPRP | 0.188 |
| RRIRIRPPRLPRPRPRPKYSPRP | -0.216 |
| RRIRIRPPRLPRPRPRPKYWPRP | -0.678 |
| RRIRIRPPRLPRPRPRPLCIPRP | -0.484 |
| RRIRIRPPRLPRPRPRPLCSPRP | -0.682 |
| RRIRIRPPRLPRPRPRPLDIPRP | -0.216 |
| RRIRIRPPRLPRPRPRPLELPRP | -0.461 |
| RRIRIRPPRLPRPRPRPLENPRP | -0.309 |
| RRIRIRPPRLPRPRPRPLFFPRP | -0.374 |
| RRIRIRPPRLPRPRPRPLKGPRP | -0.0404 |

| Sequence | shrunken log2 fold change |
| --- | --- |
| RRIRIRPPRLPRPRPRPLKLPRP | -0.838 |
| RRIRIRPPRLPRPRPRPLLCPRP | -0.462 |
| RRIRIRPPRLPRPRPRPLMSPRP | -0.372 |
| RRIRIRPPRLPRPRPRPLMTPRP | -0.233 |
| RRIRIRPPRLPRPRPRPLMYPRP | -0.513 |
| RRIRIRPPRLPRPRPRPLNAPRP | -0.107 |
| RRIRIRPPRLPRPRPRPLNDPRP | -0.351 |
| RRIRIRPPRLPRPRPRPLNTPRP | -0.876 |
| RRIRIRPPRLPRPRPRPLPWPRP | -0.019 |
| RRIRIRPPRLPRPRPRPLQGPRP | -0.182 |
| RRIRIRPPRLPRPRPRPLSQPRP | -0.111 |
| RRIRIRPPRLPRPRPRPLTNPRP | -0.572 |
| RRIRIRPPRLPRPRPRPLTYPRP | -0.495 |
| RRIRIRPPRLPRPRPRPLVWPRP | 0.0428 |
| RRIRIRPPRLPRPRPRPLWTPRP | -0.339 |
| RRIRIRPPRLPRPRPRPLYFPRP | -0.961 |
| RRIRIRPPRLPRPRPRPLYRPRP | -0.384 |
| RRIRIRPPRLPRPRPRPMANPRP | -0.104 |
| RRIRIRPPRLPRPRPRPMCNPRP | -0.0808 |
| RRIRIRPPRLPRPRPRPMCPPRP | -0.0137 |
| RRIRIRPPRLPRPRPRPMCTPRP | -0.0274 |
| RRIRIRPPRLPRPRPRPMERPRP | -0.0018 |
| RRIRIRPPRLPRPRPRPMETPRP | -0.0335 |
| RRIRIRPPRLPRPRPRPMFLPRP | -0.624 |
| RRIRIRPPRLPRPRPRPMFRPRP | -0.0542 |

| Sequence | shrunken log2 fold change |
| --- | --- |
| RRIRIRPPRLPRPRPRPMFVPRP | -0.279 |
| RRIRIRPPRLPRPRPRPMGGPRP | 0.38 |
| RRIRIRPPRLPRPRPRPMGKPRP | -0.0139 |
| RRIRIRPPRLPRPRPRPMHLPRP | -0.22 |
| RRIRIRPPRLPRPRPRPMILPRP | -0.131 |
| RRIRIRPPRLPRPRPRPMLCPRP | -0.0741 |
| RRIRIRPPRLPRPRPRPMNLPRP | -0.152 |
| RRIRIRPPRLPRPRPRPMNMPRP | -0.375 |
| RRIRIRPPRLPRPRPRPMQDPRP | -0.223 |
| RRIRIRPPRLPRPRPRPMRHPRP | 0.158 |
| RRIRIRPPRLPRPRPRPMRKPRP | 0.0125 |
| RRIRIRPPRLPRPRPRPMSAPRP | -0.205 |
| RRIRIRPPRLPRPRPRPMSCPRP | -0.141 |
| RRIRIRPPRLPRPRPRPMSLPRP | -0.0475 |
| RRIRIRPPRLPRPRPRPMSTPRP | -0.211 |
| RRIRIRPPRLPRPRPRPMSVPRP | 0.0466 |
| RRIRIRPPRLPRPRPRPMTFPRP | -0.0432 |
| RRIRIRPPRLPRPRPRPMWPPRP | 0.128 |
| RRIRIRPPRLPRPRPRPNACPRP | 0.00304 |
| RRIRIRPPRLPRPRPRPNAQPRP | -0.0106 |
| RRIRIRPPRLPRPRPRPNCMPRP | -0.287 |
| RRIRIRPPRLPRPRPRPNCTPRP | -0.663 |
| RRIRIRPPRLPRPRPRPNDRPRP | -0.0756 |
| RRIRIRPPRLPRPRPRPNEHPRP | -0.459 |
| RRIRIRPPRLPRPRPRPNFMPRP | 0.713 |

| Sequence | shrunken log2 fold change |
| --- | --- |
| RRIRIRPPRLPRPRPRPNFRPRP | -0.297 |
| RRIRIRPPRLPRPRPRPNFWPRP | -0.0359 |
| RRIRIRPPRLPRPRPRPNHMPRP | -0.361 |
| RRIRIRPPRLPRPRPRPNIAPRP | -0.407 |
| RRIRIRPPRLPRPRPRPNIHPRP | -0.936 |
| RRIRIRPPRLPRPRPRPNIMPRP | -0.947 |
| RRIRIRPPRLPRPRPRPNLLPRP | -0.309 |
| RRIRIRPPRLPRPRPRPNMDPRP | -0.874 |
| RRIRIRPPRLPRPRPRPNNMPRP | -0.959 |
| RRIRIRPPRLPRPRPRPNNWPRP | -0.535 |
| RRIRIRPPRLPRPRPRPNPDPRP | -0.659 |
| RRIRIRPPRLPRPRPRPNQCPRP | -0.465 |
| RRIRIRPPRLPRPRPRPNQRPRP | 0.00427 |
| RRIRIRPPRLPRPRPRPNREPRP | -0.0355 |
| RRIRIRPPRLPRPRPRPNSAPRP | -0.234 |
| RRIRIRPPRLPRPRPRPNSRPRP | -0.0636 |
| RRIRIRPPRLPRPRPRPNTSPRP | -0.639 |
| RRIRIRPPRLPRPRPRPNVHPRP | -0.398 |
| RRIRIRPPRLPRPRPRPNWTPRP | 0.117 |
| RRIRIRPPRLPRPRPRPNYHPRP | -0.733 |
| RRIRIRPPRLPRPRPRPNYVPRP | -0.115 |
| RRIRIRPPRLPRPRPRPPCPPRP | -0.141 |
| RRIRIRPPRLPRPRPRPPDAPRP | 0.5 |
| RRIRIRPPRLPRPRPRPPDMPRP | -0.16 |
| RRIRIRPPRLPRPRPRPPDSPRP | -0.0582 |

| Sequence | shrunken log2 fold change |
| --- | --- |
| RRIRIRPPRLPRPRPRPPEDPRP | 0.324 |
| RRIRIRPPRLPRPRPRPPFTPRP | 0.0753 |
| RRIRIRPPRLPRPRPRPPGNPRP | -0.233 |
| RRIRIRPPRLPRPRPRPPGQPRP | -0.125 |
| RRIRIRPPRLPRPRPRPPHFPRP | -0.138 |
| RRIRIRPPRLPRPRPRPPHIPRP | -0.542 |
| RRIRIRPPRLPRPRPRPPHLPRP | -0.14 |
| RRIRIRPPRLPRPRPRPPHTPRP | -0.055 |
| RRIRIRPPRLPRPRPRPPIFPRP | -0.0827 |
| RRIRIRPPRLPRPRPRPPITPRP | -0.366 |
| RRIRIRPPRLPRPRPRPPKWPRP | -0.00369 |
| RRIRIRPPRLPRPRPRPPLEPRP | -0.272 |
| RRIRIRPPRLPRPRPRPPMAPRP | -0.256 |
| RRIRIRPPRLPRPRPRPPMCPRP | -0.0556 |
| RRIRIRPPRLPRPRPRPPNGPRP | -0.291 |
| RRIRIRPPRLPRPRPRPPNRPRP | -0.462 |
| RRIRIRPPRLPRPRPRPPNVPRP | 0.0421 |
| RRIRIRPPRLPRPRPRPPPDPRP | 0.654 |
| RRIRIRPPRLPRPRPRPPPNPRP | 0.776 |
| RRIRIRPPRLPRPRPRPPPPPRP | 0.714 |
| RRIRIRPPRLPRPRPRPPSEPRP | -0.118 |
| RRIRIRPPRLPRPRPRPPSMPRP | -0.206 |
| RRIRIRPPRLPRPRPRPPTEPRP | -0.323 |
| RRIRIRPPRLPRPRPRPPWQPRP | 1.02 |
| RRIRIRPPRLPRPRPRPPYKPRP | -0.386 |

— the supplement of paper PMC9112550, “Optimization of the antimicrobial peptide Bac7 by deep mutational scanning” (BMC Biology, 2022)
